Data set [1] deals with the molecule itself. Put plainly: pulsed dipolar ESR spectroscopy.
The data set “SEC-MALS” concerns the molecule itself. Put plainly: SEC-MALS. For orientation: Size exclusion chromatography separates by hydrodynamic size, large species first.
Data set [2] addresses T1, T. maritima FliM middle domain (FliMM, residues 46-242) (Thermotoga maritima, UniProt Q9WZE6 46-242).
T1 sequence (looked up): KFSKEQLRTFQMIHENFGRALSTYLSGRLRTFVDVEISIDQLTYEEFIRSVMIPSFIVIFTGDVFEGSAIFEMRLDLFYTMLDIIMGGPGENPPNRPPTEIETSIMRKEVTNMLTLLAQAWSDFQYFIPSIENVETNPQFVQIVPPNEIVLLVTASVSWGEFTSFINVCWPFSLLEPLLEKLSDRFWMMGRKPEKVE
Put plainly: crystal structure.

B1: FliG Q129W 160-R1 (FliGMC Q129W K160C, MTSSL spin-labeled) (domain or fragment, Thermotoga maritima, UniProt Q9WY63 116-335, looked up)
chain: PVQLVNFLQSEHPWTIAVVLSYLDPPVAAQILGALPEELQTEVLCRIALLERTSPEVVKEIERNLEKKISGFVSRTFSKVGGIDTAAEIMNNLDRTTEKKIMDKLVQENPELADEIRRRMFVFEDILKLDDRSIQLVLREVDTRDLALALKGASDELKEKIFKNMSKRAAALLKDELEYMGPVRLKDVEEAQQKIINIIRRLEEAGEIVIARGGGEELIM
modifications: nitroxide side chain R1 (MTSSL on Cys 160)
B1: in data set [1], the binding result was “binds”.

B2: FliG 160-R1 (FliGMC K160C, MTSSL spin-labeled) (domain or fragment, Thermotoga maritima, UniProt Q9WY63 116-335, looked up)
chain: PVQLVNFLQSEHPQTIAVVLSYLDPPVAAQILGALPEELQTEVLCRIALLERTSPEVVKEIERNLEKKISGFVSRTFSKVGGIDTAAEIMNNLDRTTEKKIMDKLVQENPELADEIRRRMFVFEDILKLDDRSIQLVLREVDTRDLALALKGASDELKEKIFKNMSKRAAALLKDELEYMGPVRLKDVEEAQQKIINIIRRLEEAGEIVIARGGGEELIM
modifications: nitroxide side chain R1 (MTSSL on Cys 160)
As for B2, the “stoichiometry N” value in the data set “SEC-MALS” was determined as 2.

B3: FliG 174-R1 (FliGMC K174C, MTSSL spin-labeled) (domain or fragment, Thermotoga maritima, UniProt Q9WY63 116-335, looked up)
chain: PVQLVNFLQSEHPQTIAVVLSYLDPPVAAQILGALPEELQTEVLKRIALLERTSPEVVCEIERNLEKKISGFVSRTFSKVGGIDTAAEIMNNLDRTTEKKIMDKLVQENPELADEIRRRMFVFEDILKLDDRSIQLVLREVDTRDLALALKGASDELKEKIFKNMSKRAAALLKDELEYMGPVRLKDVEEAQQKIINIIRRLEEAGEIVIARGGGEELIM
modifications: nitroxide side chain R1 (MTSSL on Cys 174)
As to B3, in data set [1], the binding result is “binds”.

B4: T. maritima FliG middle domain (FliGM, residues 117-195) (domain or fragment, Thermotoga maritima, UniProt Q9WY63 117-195, looked up)
chain: VQLVNFLQSEHPQTIAVVLSYLDPPVAAQILGALPEELQTEVLKRIALLERTSPEVVKEIERNLEKKISGFVSRTFSKV
In the case of B4, the binding result in data set [2] was “binds”.

As usually defined, the stoichiometry N is a count of units in the complex or per binding partner.

For the origin of these results see paper PMC4323944 (Journal of molecular biology, 2014).
